# B1: Sec16 central conserved domain (residues 984–1421) (domain or fragment, S. cerevisiae, UniProt P48415 984-1421, looked up)
# chain: DNEALLRRQFPIFHWSAANKVVYAVPPIPDQSQYMISSSIVQEIKVTPIDQIIKPNDMLKSFPGPLGSAKLKKKDLTKWMETTIKSISENESSTDMTIWQLLEMKLNDKVNWKNISKLLYNSDELLMYLSQPFPNGDMIPNAYRLDINCQMRVLAFLQTGNHDEALRLALSKRDYAIALLVGSLMGKDRWSEVIQKYLYEGFTAGPNDQKELAHFLLLIFQVFVGNSKMAIKSFYTNNETSQWASENWKSIVAAVLINIPENNEDPLLIPPVVLEFLIEFGIFLTKKGLTAAASTLFIIGNVPLSNEPVMADSDVIFESIGNMNTFESILWDEIYEYIFSYDPKFKGFSSILPQKIYHASLLQEQGLNSLGTKYTDYLSSSVRKLPKKDILTINLTRELSEVASRLSESNTGWLAKPKLSSVWGQLDKSFNKYIGGDD
# Experiments:
# [1] = target: T1, Sec31EE (residues 370–746, M540E and L544E) (yeast, UniProt P38968 370-746, M540E | L544E); experiment: SEC
# T1 sequence (looked up): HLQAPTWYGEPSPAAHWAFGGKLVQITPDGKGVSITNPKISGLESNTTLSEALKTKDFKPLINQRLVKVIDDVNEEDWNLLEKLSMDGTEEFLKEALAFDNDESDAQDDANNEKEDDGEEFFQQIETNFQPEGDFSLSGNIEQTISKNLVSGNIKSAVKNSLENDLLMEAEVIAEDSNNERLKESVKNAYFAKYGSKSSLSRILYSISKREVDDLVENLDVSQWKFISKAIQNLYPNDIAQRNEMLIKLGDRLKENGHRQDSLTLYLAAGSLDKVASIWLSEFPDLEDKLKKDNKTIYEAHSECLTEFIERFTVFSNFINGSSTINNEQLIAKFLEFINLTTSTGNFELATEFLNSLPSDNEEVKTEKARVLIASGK
# [2] = target: B1; experiment: AUC
# [3] = target: the molecule itself; experiment: crystal structure
# [4] = target: the molecule itself; experiment: SEC
# [5] = target: the molecule itself; experiment: AUC
binder,measurement,setting,value
"Sec13 (natural protein, S. cerevisiae, UniProt Q04491 1-297, looked up) MVVIANAHNELIHDAVLDYYGKRLATCSSDKTIKIFEVEGETHKLIDTLTGHEGPVWRVDWAHPKFGTILASCSYDGKVLIWKEENGRWSQIAVHAVHSASVNSVQWAPHEYGPLLLVASSDGKVSVVEFKENGTTSPIIIDAHAIGVNSASWAPATIEEDGEHNGTKESRKFVTGGADNLVKIWKYNSDAQTYVLESTLEGHSDWVRDVAWSPTVLLRSYLASVSQDRTCIIWTQDNEQGPWKKTLLKEEKFPDVLWRASWSLSGNVLALSGGDNKVTLWKENLEGKWEPAGEVHQ",stoichiometry N,[1],1 Sec13 per Sec31EE (printed 1:1)
same,stoichiometry N,[2],1 Sec13 per Sec16 (printed 2:2)
"Sec31ΔL (residues 370–746, deletion of residues 474–507) (domain or fragment, yeast, UniProt P38968 370-746, looked up) HLQAPTWYGEPSPAAHWAFGGKLVQITPDGKGVSITNPKISGLESNTTLSEALKTKDFKPLINQRLVKVIDDVNEEDWNLLEKLSMDGTEEFLKEALAFDNDESGNIEQTISKNLVSGNIKSAVKNSLENDLLMEAMVIALDSNNERLKESVKNAYFAKYGSKSSLSRILYSISKREVDDLVENLDVSQWKFISKAIQNLYPNDIAQRNEMLIKLGDRLKENGHRQDSLTLYLAAGSLDKVASIWLSEFPDLEDKLKKDNKTIYEAHSECLTEFIERFTVFSNFINGSSTINNEQLIAKFLEFINLTTSTGNFELATEFLNSLPSDNEEVKTEKARVLIASGK",binding result,[3],binds
"Sec31 (residues 370–746) (domain or fragment, yeast, UniProt P38968 370-746, looked up) HLQAPTWYGEPSPAAHWAFGGKLVQITPDGKGVSITNPKISGLESNTTLSEALKTKDFKPLINQRLVKVIDDVNEEDWNLLEKLSMDGTEEFLKEALAFDNDESDAQDDANNEKEDDGEEFFQQIETNFQPEGDFSLSGNIEQTISKNLVSGNIKSAVKNSLENDLLMEAMVIALDSNNERLKESVKNAYFAKYGSKSSLSRILYSISKREVDDLVENLDVSQWKFISKAIQNLYPNDIAQRNEMLIKLGDRLKENGHRQDSLTLYLAAGSLDKVASIWLSEFPDLEDKLKKDNKTIYEAHSECLTEFIERFTVFSNFINGSSTINNEQLIAKFLEFINLTTSTGNFELATEFLNSLPSDNEEVKTEKARVLIASGK",binding result,[4],binds
B1,stoichiometry N,[5],2 copies of Sec16 in the tetramer

# Reference: publication PMC2922654 (The Journal of Cell Biology, 2010)
